Experiment [1] deals with PAM_(NS88.2), plasminogen-binding Group A streptococcal M-protein from GAS isolate NS88.2 (Streptococcus pyogenes (GAS isolate NS88.2)). The experiment can be described thus: AUC; apo-PAM_(NS88.2), sedimentation equilibrium at two rotor speeds (<0.2 mg/ml) and sedimentation velocity (6 µM); 50 mM sodium phosphate/100 mM NaCl, pH 7.4; 4°C, 15°C and 25°C.
Experiment [2] addresses AGL55, 55-mer A-domain peptide of PAM_(NS88.2) (Streptococcus pyogenes (GAS isolate NS88.2)). The experiment in a line: ITC; K2hPg (syringe) titrated into AGL55 (30 µM, cell); 50 mM sodium phosphate/100 mM NaCl, pH 7.4; 37°C; hetero-association model A + B (Sedphat).
Experiment [3] has as its target PAM_(NS88.2), plasminogen-binding Group A streptococcal M-protein from GAS isolate NS88.2 (Streptococcus pyogenes (GAS isolate NS88.2)). The experiment can be described thus: ITC; K2hPg (syringe) titrated into PAM_(NS88.2) (6 µM as monomer, cell); 50 mM sodium phosphate/100 mM NaCl, pH 7.4; 4°C; hetero-association model of K2hPg and PAM monomer (Sedphat). In general terms: Isothermal titration calorimetry measures the heat released or taken up as one component is titrated into another.

The target is the same in experiment [4]. The experiment in a line: ITC; K2hPg (syringe) titrated into PAM_(NS88.2) (6 µM as monomer, cell); 50 mM sodium phosphate/100 mM NaCl, pH 7.4; 25°C; only the final inflection fitted, hetero-association model A + B (Sedphat).
Experiment [5] shares this target. The experiment in a line: ITC; K2hPg (syringe) titrated into PAM_(NS88.2) (6 µM as monomer, cell); 50 mM sodium phosphate/100 mM NaCl, pH 7.4; 37°C; hetero-association model (Sedphat).
The target in experiment [6] is AGL55, 55-mer A-domain peptide of PAM_(NS88.2) (Streptococcus pyogenes (GAS isolate NS88.2)). The experiment in a line: SEC-MALS; K2hPg/AGL55 mixture on a Wyatt 030S5 column, UV, RI and MALS detection, protein conjugate analysis; 50 mM Na-phosphate/100 mM NaCl, pH 7.4; 25°C. For orientation: Size exclusion chromatography separates by hydrodynamic size, large species first.

Experiment [7] has the same target. The experiment in a line: ITC; K2hPg (syringe) titrated into AGL55 (30 µM, cell); 50 mM sodium phosphate/100 mM NaCl, pH 7.4; 25°C; hetero-association model A + B (Sedphat).
The target is the same in experiment [8]. The experiment in a line: ITC; K2hPg (syringe) titrated into AGL55 (30 µM, cell); 50 mM sodium phosphate/100 mM NaCl, pH 7.4; 4°C; hetero-association model A + B (Sedphat).
Experiment [9] concerns the target PAM_(NS88.2), plasminogen-binding Group A streptococcal M-protein from GAS isolate NS88.2 (Streptococcus pyogenes (GAS isolate NS88.2)). The experiment in a line: AUC; sedimentation equilibrium of the K2hPg/PAM_(NS88.2) complex isolated by gel filtration, at the temperature of its isolation (4°C, 25°C, 37°C); 50 mM sodium phosphate/100 mM NaCl, pH 7.4.

This is an account of results in PMC8633249.

With “PAM_(NS88.2), plasminogen-binding Group A streptococcal M-protein from GAS isolate NS88.2 (natural protein)”, in experiment [1], the stoichiometry N (commonly the number of molecules, sites or subunits per partner or assembly) was 2.
Consider “K2hPg, kringle-2 domain of human plasminogen (from UniProt P00747 183-262) (domain or fragment)”, for which the stoichiometry N in [2], in experiment [6], in experiment [7], in [8] and in experiment [9] was 1 m:m each time. Also, the Kd (usually the free concentration of one partner at which half of the binding sites on the other are occupied at equilibrium, for simple one-to-one binding) in [3] amounted to 0.7 nM; in experiment [4], 2.7 nM; in [5], 181 nM. The dH in [3] was -13.7 kcal/mol; in experiment [5], -37 kcal/mol.
